Test results as given in the supplement of paper PMC9112550, “Optimization of the antimicrobial peptide Bac7 by deep mutational scanning” (BMC Biology, 2022).

Each sequence was assayed on Escherichia coli TOP10 (assay: shrunken log2 fold change of peptide-encoding DNA abundance (4.5 h post-induction vs induction); higher = less antimicrobial activity (less host growth inhibition)). Conditions: time post-induction: 4.5 h; library: site-saturation at positions 5, 18, 19, 20.
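Note: peptides expressed intracellularly from a pBAD plasmid library in pooled LB shake-flask culture, induced with 0.3% L-arabinose, DNA abundance read by NGS, three biological replicates, DESeq2 with apeglm shrinkage.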

RRIRARPPRLPRPRPRPSTSPRP was tested. Which “shrunken log2 fold change” value did it give?
Its value is -0.322.

With RRIRARPPRLPRPRPRPSVRPRP as the sequence, how does the “shrunken log2 fold change” value read?
The value was -0.0488.

Which “shrunken log2 fold change” value does the source give for RRIRARPPRLPRPRPRPSVYPRP here?
The value was -0.138.

Which “shrunken log2 fold change” value does the source give for RRIRARPPRLPRPRPRPSWAPRP here?
The value was 0.106.

How did the “shrunken log2 fold change” value turn out when RRIRARPPRLPRPRPRPSYGPRP was run?
The value was -0.282.

How did the “shrunken log2 fold change” value turn out when RRIRARPPRLPRPRPRPTAPPRP was run?
Its value is 0.8.

For RRIRARPPRLPRPRPRPTAWPRP, which “shrunken log2 fold change” value is on record?
Its value is 0.863.

With RRIRARPPRLPRPRPRPTCEPRP as the sequence, how does the “shrunken log2 fold change” value read?
The value was 0.723.

RRIRARPPRLPRPRPRPTCVPRP was tested. Which “shrunken log2 fold change” value did it give?
Its value is 0.698.

For RRIRARPPRLPRPRPRPTEMPRP, which “shrunken log2 fold change” value is on record?
Its value is -0.00782.

RRIRARPPRLPRPRPRPTFLPRP was tested. Which “shrunken log2 fold change” value did it give?
Its value is 0.113.

With RRIRARPPRLPRPRPRPTGIPRP as the sequence, how does the “shrunken log2 fold change” value read?
The value was 0.0125.

With RRIRARPPRLPRPRPRPTHIPRP as the sequence, how does the “shrunken log2 fold change” value read?
Its value is 0.36.

How did the “shrunken log2 fold change” value turn out when RRIRARPPRLPRPRPRPTHPPRP was run?
The value was 0.586.

RRIRARPPRLPRPRPRPTHSPRP was tested. Which “shrunken log2 fold change” value did it give?
Its value is 0.459.

With RRIRARPPRLPRPRPRPTIFPRP as the sequence, how does the “shrunken log2 fold change” value read?
The value was 0.377.

How did the “shrunken log2 fold change” value turn out when RRIRARPPRLPRPRPRPTITPRP was run?
The value was 0.187.

With RRIRARPPRLPRPRPRPTKLPRP as the sequence, how does the “shrunken log2 fold change” value read?
Its value is -0.00644.

For RRIRARPPRLPRPRPRPTMDPRP, which “shrunken log2 fold change” value is on record?
Its value is -0.037.

Which “shrunken log2 fold change” value does the source give for RRIRARPPRLPRPRPRPTNEPRP here?
The value was 0.344.

For RRIRARPPRLPRPRPRPTPEPRP, which “shrunken log2 fold change” value is on record?
The value was 0.694.

For RRIRARPPRLPRPRPRPTQFPRP, which “shrunken log2 fold change” value is on record?
Its value is 0.071.

Which “shrunken log2 fold change” value does the source give for RRIRARPPRLPRPRPRPTQIPRP here?
Its value is 0.553.

For RRIRARPPRLPRPRPRPTSAPRP, which “shrunken log2 fold change” value is on record?
The value was 0.684.

With RRIRARPPRLPRPRPRPTTCPRP as the sequence, how does the “shrunken log2 fold change” value read?
Its value is 0.0733.

How did the “shrunken log2 fold change” value turn out when RRIRARPPRLPRPRPRPTTIPRP was run?
Its value is 0.0651.

Which “shrunken log2 fold change” value does the source give for RRIRARPPRLPRPRPRPTVCPRP here?
The value was 0.505.

RRIRARPPRLPRPRPRPTVSPRP was tested. Which “shrunken log2 fold change” value did it give?
The value was 0.136.

Which “shrunken log2 fold change” value does the source give for RRIRARPPRLPRPRPRPTYGPRP here?
The value was -0.0482.

Which “shrunken log2 fold change” value does the source give for RRIRARPPRLPRPRPRPVAFPRP here?
The value was 0.457.

Which “shrunken log2 fold change” value does the source give for RRIRARPPRLPRPRPRPVAHPRP here?
Its value is 0.159.

How did the “shrunken log2 fold change” value turn out when RRIRARPPRLPRPRPRPVAIPRP was run?
The value was 0.111.

Which “shrunken log2 fold change” value does the source give for RRIRARPPRLPRPRPRPVAMPRP here?
Its value is 0.383.

Which “shrunken log2 fold change” value does the source give for RRIRARPPRLPRPRPRPVDAPRP here?
The value was 1.28.

With RRIRARPPRLPRPRPRPVGDPRP as the sequence, how does the “shrunken log2 fold change” value read?
Its value is 0.515.

Which “shrunken log2 fold change” value does the source give for RRIRARPPRLPRPRPRPVGNPRP here?
Its value is 0.0787.

For RRIRARPPRLPRPRPRPVHGPRP, which “shrunken log2 fold change” value is on record?
Its value is 0.785.

With RRIRARPPRLPRPRPRPVICPRP as the sequence, how does the “shrunken log2 fold change” value read?
The value was 0.408.

Which “shrunken log2 fold change” value does the source give for RRIRARPPRLPRPRPRPVIVPRP here?
The value was 0.142.

Which “shrunken log2 fold change” value does the source give for RRIRARPPRLPRPRPRPVKHPRP here?
Its value is 0.0139.

How did the “shrunken log2 fold change” value turn out when RRIRARPPRLPRPRPRPVMDPRP was run?
Its value is 0.671.

For RRIRARPPRLPRPRPRPVNDPRP, which “shrunken log2 fold change” value is on record?
The value was 0.584.

For RRIRARPPRLPRPRPRPVNLPRP, which “shrunken log2 fold change” value is on record?
The value was 0.0654.

RRIRARPPRLPRPRPRPVNVPRP was tested. Which “shrunken log2 fold change” value did it give?
The value was -0.169.

With RRIRARPPRLPRPRPRPVPCPRP as the sequence, how does the “shrunken log2 fold change” value read?
The value was 0.341.

Which “shrunken log2 fold change” value does the source give for RRIRARPPRLPRPRPRPVQGPRP here?
Its value is 0.47.

How did the “shrunken log2 fold change” value turn out when RRIRARPPRLPRPRPRPVQPPRP was run?
The value was 0.392.

Which “shrunken log2 fold change” value does the source give for RRIRARPPRLPRPRPRPVQTPRP here?
The value was 0.264.

With RRIRARPPRLPRPRPRPVRWPRP as the sequence, how does the “shrunken log2 fold change” value read?
Its value is 0.88.

RRIRARPPRLPRPRPRPVSEPRP was tested. Which “shrunken log2 fold change” value did it give?
The value was 0.338.

Which “shrunken log2 fold change” value does the source give for RRIRARPPRLPRPRPRPVVLPRP here?
Its value is 0.463.

For RRIRARPPRLPRPRPRPVWHPRP, which “shrunken log2 fold change” value is on record?
The value was 0.324.

For RRIRARPPRLPRPRPRPVWMPRP, which “shrunken log2 fold change” value is on record?
Its value is 0.0552.

How did the “shrunken log2 fold change” value turn out when RRIRARPPRLPRPRPRPWCPPRP was run?
Its value is -0.169.

RRIRARPPRLPRPRPRPWCTPRP was tested. Which “shrunken log2 fold change” value did it give?
Its value is -0.284.

For RRIRARPPRLPRPRPRPWDDPRP, which “shrunken log2 fold change” value is on record?
The value was 0.177.

For RRIRARPPRLPRPRPRPWENPRP, which “shrunken log2 fold change” value is on record?
Its value is 0.0143.

With RRIRARPPRLPRPRPRPWFFPRP as the sequence, how does the “shrunken log2 fold change” value read?
Its value is 0.089.

Which “shrunken log2 fold change” value does the source give for RRIRARPPRLPRPRPRPWFWPRP here?
Its value is 0.544.

How did the “shrunken log2 fold change” value turn out when RRIRARPPRLPRPRPRPWGLPRP was run?
Its value is 0.617.

Which “shrunken log2 fold change” value does the source give for RRIRARPPRLPRPRPRPWHKPRP here?
The value was 0.0323.

With RRIRARPPRLPRPRPRPWMKPRP as the sequence, how does the “shrunken log2 fold change” value read?
The value was -0.172.

Which “shrunken log2 fold change” value does the source give for RRIRARPPRLPRPRPRPWPTPRP here?
Its value is 0.703.

How did the “shrunken log2 fold change” value turn out when RRIRARPPRLPRPRPRPWREPRP was run?
Its value is -0.0619.

How did the “shrunken log2 fold change” value turn out when RRIRARPPRLPRPRPRPWRSPRP was run?
The value was 0.143.

RRIRARPPRLPRPRPRPWSFPRP was tested. Which “shrunken log2 fold change” value did it give?
The value was -0.00357.

How did the “shrunken log2 fold change” value turn out when RRIRARPPRLPRPRPRPWTPPRP was run?
Its value is 0.123.

With RRIRARPPRLPRPRPRPWVFPRP as the sequence, how does the “shrunken log2 fold change” value read?
Its value is 0.276.

Which “shrunken log2 fold change” value does the source give for RRIRARPPRLPRPRPRPWVPPRP here?
Its value is -0.146.

With RRIRARPPRLPRPRPRPWVQPRP as the sequence, how does the “shrunken log2 fold change” value read?
The value was -0.0652.

With RRIRARPPRLPRPRPRPWYCPRP as the sequence, how does the “shrunken log2 fold change” value read?
The value was -0.306.

With RRIRARPPRLPRPRPRPYAQPRP as the sequence, how does the “shrunken log2 fold change” value read?
The value was -0.181.

RRIRARPPRLPRPRPRPYASPRP was tested. Which “shrunken log2 fold change” value did it give?
Its value is -0.245.

RRIRARPPRLPRPRPRPYCPPRP was tested. Which “shrunken log2 fold change” value did it give?
Its value is -0.585.

With RRIRARPPRLPRPRPRPYFNPRP as the sequence, how does the “shrunken log2 fold change” value read?
The value was -0.71.
